{"source": "paper PMC4682845", "molecular_target": "MERS-CoV main protease (M^pro), wild type, authentic N-terminus (MERS-CoV)", "assay": "AUC"}
{"substance": "MERS-CoV main protease (M^pro), wild type, authentic N-terminus (enzyme)", "values": [{"measurement": "percent dimer", "value": 70, "unit": "%"}]}
